Values belong to the substance of their own block, whether it stands above or below them.
Key:
Assay in all cases: cross-linking
[1] = biological target: endogenous TACE of Cα cells (CHO cells that express TGF-α) (Chinese hamster (endogenous in Cα/CHO cells))
[2] = biological target: TACE-B/ADAM10cyto (truncated human TACE with the cytoplasmic domain of ADAM10), Flag-tagged (human) (UniProt O14672)
[3] = biological target: endogenous ADAM10 of Cα cells (Chinese hamster (endogenous in Cα/CHO cells))

- stoichiometry N [1]: 2
Substance: endogenous TACE of Cα cells (CHO cells that express TGF-α) (enzyme)

- stoichiometry N [2]: 2
Substance: TACE-B/ADAM10cyto (truncated human TACE with the cytoplasmic domain of ADAM10), Flag-tagged (from UniProt O14672 694-748)

- stoichiometry N [3]: 2
Substance: endogenous ADAM10 of Cα cells (enzyme)

Source: publication PMC4254802
